In patent US20150306058A1, “COMPOSITION COMPRISING A SINGLE VARIABLE DOMAIN AND CAMOSTAT MESYLATE (CM)” (Glaxo Group Limited, priority 2012, published 2015):

Tests used:
[1] = Recovery of DOM101 from gut tissue and plasma after intra-duodenal administration, TNFR1-specific MSD assay; format: in vivo, Han Wistar rats
Description: Han Wistar rats were dosed with 1 mg DOM101 in the presence or absence of 100 mg CM, to determine if CM preserved the dAb™ in the gastrointestinal tract. Rats were briefly anaesthetised by isoflurane anaesthetic and a midline abdominal incision made to facilitate location of the duodenum for direct intra-duodenal injection (500 μl) of the dose formulations. Following dosing, the abdominal incisions were closed and the rats allowed to recover prior to their return to study cages. Direct dosing into the duodenum bypassed the acidic conditions of the gastric juices in the stomach and allowed for direct analysis of pharmacokinetics in the intestinal tract.
Animals were culled at the following time-points: 0.5, 1.5, 3, 5, 7 and 18 hours (three animals per group).
Blood samples were taken and the intestinal tract dissected out and divided into its constituent parts: duodenum (×2), jejunum (×6), ileum, caecum, colon (×2), rectum.
(§1) Intestinal samples were homogenised using the GentleMACS™ Dissociator in lysis buffer containing detergent and protease inhibitors. Samples were screened for DOM101 using a TNFR1-specific MSD™ assay. In brief, MSD plates were coated with TNFR1-Fc. Plates were washed and blocked with bovine serum albumin. Tissue samples were diluted and added to the plate, along with a standard curve of dAb™, then incubated at room temperature to allow binding. Plates were washed and a sulfo-tag-conjugated anti-Vh antibody was added to the wells. After incubation, the plate was washed and incubated with MSD read buffer. The resulting electrochemiluminescence signal was read on a Sector Imager 6000.
Results are expressed as nanograms per gram of tissue in FIG. 6.

[2] = Recovery of DOM101 from the large intestine after intra-colonic administration; format: in vivo, Han Wistar rats; conditions: 1 mg DOM101 intra-colonic
Description: as §1
Han Wistar rats were dosed with 1 mg DOM101 in the presence or absence of CM, to determine if camostat mesylate also preserved the dAb™ in the large intestinal tract. In brief, rats were anaesthetised by isoflurane anaesthetic, a midline abdominal incision made to facilitate location of the colon and 500 ul dose of the dose formulations injected directly into the colon. Following dosing, the abdominal incisions were loosely closed and the rats maintained under isoflurane anaesthesia and monitored for the duration of the experiment. […]
Samples were homogenised and screened as stated in Example 4. Results are expressed as nanograms per gram of tissue in FIG. 7.

[3] = Transition midpoint (Tm) of dAbs, thermal stability (DSC); format: physicochemical
Description: “Transition midpoint” or “Tm” is the temperature where 50% of the single variable domain is in its native conformation and the other 50% is denatured. In an embodiment, the single variable domain has a high Tm. In particular the Tm is greater than or equal to about 66° C. The thermal stability of a single variable domain, including the Tm, may be determined using Differential Scanning calorimetry (DSC).
For these Examples, high Tm dAb™ refers to a dAb™ with a Tm of 66° C., and low Tm dAb™ refers to a dAb™ with a Tm of 56° C.

[4] = 1 mg DOM101 intra-duodenal, absence of CM

B1: DOM101: TNFR1 specific dAb, SEQ ID NO: 6 (protein)
VHH: EVQLLESGGGLVQPGGSLRLSCAASGFTFAHETMVWVRQAPGKGLEWVSHIPPDGQDPFYADSVKGRFTISRDNSKNTLYLQMNSLRAEDTAVYHCALLPKRGPWFDYWGQGTLVTVSS
modifications: Amino acid sequence identified using molecular biology techniques.
[1]; [4]
  amount of dAb detectable in the ileum (in words): small amounts
  time at which dAb was detectable in the duodenum: 0.5 h
  time up to which dAb was detectable in the jejunum: up to 1.5 h
[1]; 1 mg DOM101 intra-duodenal, presence of 100 mg CM
  time after dosing at which dAb was detectable throughout the GI tract: 7 h
[1]; after intra-duodenal dosing, data not shown
  level in plasma: less than 0.1 % of the total dose
[2]; absence of CM, particularly caecum and rectum
  dAb levels at 3 h in the absence of CM compared with the two CM groups (in words): substantially reduced
[2]; presence or absence of CM, rectum except 10 mg camostat group
  dAb levels in caecum, colon and rectum at 0.5 h (in words): High levels

B2: DOM3: domain antibody (single variable domain), Vh framework, SEQ ID NO: 3 (protein)
VHH: EVQLLESGGGLVQPGGSLRLSCAASGFTFAHETMVWVRQAPGKGLEWVSHIPPDGQDPFYADSVKGRFTISRDNSKNTLYLQMNSLRAEDTAVYHCALLPKRGPWFDYWGQGTLVTVSS
modifications: Amino acid sequence identified using molecular biology techniques.
[3]
  Tm (° C.): 65 °C

B3: DOM7: domain antibody (single variable domain), Vh framework, SEQ ID NO: 5 (protein)
VHH: EVQLLESGGGLVQPGGSLRLSCAASGSTFTDDRMWWVRQAPGKGLEWVSAIQPDGHTTYYADSVKGRFTISRDNSKNTLYLQMNSLRAEDTAVYYCAEQDVKGSSSFDYWGQGTLVTVSS
modifications: Amino acid sequence identified using molecular biology techniques.
[3]
  Tm (° C.): 50.6 °C

B4: DOM2: domain antibody (single variable domain), Vh framework, SEQ ID NO: 2 (protein)
VHH: EVQLLESGGGLVQPGGSLRLSCAASGFTFRNFGMGWVRQAPGKGLEWVSWIISSGTETYYADSVKGRFTISRDNSKNTLYLQMNSLRAEDTAVYYCAKSLGRFDYWGQGTLVTVSS
modifications: Amino acid sequence identified using molecular biology techniques.
[3]
  Tm (° C.): 55.9 °C

B5: DOM6: domain antibody (single variable domain), Vh framework, SEQ ID NO: 4 (protein)
VHH: EVQLLESGGGLVQPGGSLRLSCAASGFTFSEGTMWWVRQAPGKGLEWVSAILAAGSNTYYADSVKGRFTISRDNSKNTLYLQMNSLRAEDTAVYYCAKKRQERDGFDYWGQGTLVTVSS
modifications: Amino acid sequence identified using molecular biology techniques.
[3]
  Tm (° C.): 55.8 °C

B6: DOM1: domain antibody (single variable domain), Vκ framework, SEQ ID NO: 1 (antibody, V domains shown)
VL: DIQMTQSPSSLSASVGDRVTITCRASQDIYLNLDWYQQKPGKAPKLLINFGSELQSGVPSRFSGSGYGTDFTLTISSLQPEDFATYYCQPSFYFPYTFGQGTKVEIKR
modifications: Amino acid sequence identified using molecular biology techniques.
[3]
  Tm (° C.): 55 °C
